Article PMC3269026 (Frontiers in Microbiology, 2012)

Target: T1, translocated intimin receptor (Tir) of EPEC, delivered to HEp-2 cells (EPEC (strain JPN15.96), UniProt B7UM99 1-550)
T1 sequence: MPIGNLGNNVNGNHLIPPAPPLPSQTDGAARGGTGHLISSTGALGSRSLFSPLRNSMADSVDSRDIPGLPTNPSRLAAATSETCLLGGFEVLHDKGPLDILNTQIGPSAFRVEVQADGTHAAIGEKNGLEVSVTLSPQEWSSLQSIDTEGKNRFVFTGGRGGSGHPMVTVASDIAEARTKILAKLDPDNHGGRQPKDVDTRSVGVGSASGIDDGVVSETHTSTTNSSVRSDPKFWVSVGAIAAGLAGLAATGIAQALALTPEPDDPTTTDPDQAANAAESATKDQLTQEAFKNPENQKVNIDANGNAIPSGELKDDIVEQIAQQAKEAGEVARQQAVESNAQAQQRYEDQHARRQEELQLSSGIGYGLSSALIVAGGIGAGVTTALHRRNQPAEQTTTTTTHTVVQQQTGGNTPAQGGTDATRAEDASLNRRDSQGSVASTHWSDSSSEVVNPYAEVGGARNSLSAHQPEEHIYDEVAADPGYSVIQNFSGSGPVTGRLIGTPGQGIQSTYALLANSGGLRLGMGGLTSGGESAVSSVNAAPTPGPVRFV
Assay: bacterial adherence to Tir-primed cells

B1: EHEC intimin (natural protein)
chain: NGENYFKLGSDSKLLTHDSYQNRLFYTLKTGETVADLSKSQDINLSTIWSLNKHLYSSESEMMKAAPGQQIILPLKKLPFEYSALPLLGSAPLVAAGGVAGHTNKLTKMSPDVTKSNMTDDKALNYAAQQAASLGSQLQSRSLNGDYAKDTALGIAGNQASSQLQAWLQHYGTAEVNLQSGNNFDGSSLDFLLPFYDSEKMLAFGQVGARYIDSRFTANLGAGQRFFLPANMLGYNVFIDQDFSGDNTRLGIGGEYWRDYFKSSVNGYFRMSGWHESYNKKDYDERPANGFDIRFNGYLPSYPALGAKLIYEQYYGDNVALFNSDKLQSNPGAATVGVNYTPIPLVTMGIDYRHGTGNENDLLYSMQFRYQFDKSWSQQIEPQYVNELRTLSGSRYDLVQRNNNIILEYKKQDILSLNIPHDINGTEHSTQKIQLIVKSKYGLDRIVWDDSALRSQGGQIQHSGSQSAQDYQAILPAYVQGGSNIYKVTARAYDRNGNSSNNVQLTITVLSNGQVVDQVGVTDFTADKTSAKADNADTITYTATVKKNGVAQANVPVSFNIVSGTATLGANSAKTDANGKATVTLKSSTPGQVVVSAKTAEMTSALNASAVIFFDQTKASITEIKADKTTAVANGKDAIKYTVKVMKNGQPVNNQSVTFSTNFGMFNGKSQTQATTGNDGRATITLTSSSAGKATVSATVSDGAEVKATEVTFFDELKIDNKVDIIGNNVRGELPNIWLQYGQFKLKASGGDGTYSWYSENTSIATVDASGKVTLNGKGSVVIKATSGDKQTVSYTIKAPSYMIKVDKQAYYADAMSICKNLLPSTQTVLSDIYDSWGAANKYSHYSSMNSITAWIKQTSSEQRSGVSSTYNLITQNPLPGVNVNTPNVYAVCVE
- fold binding over C. rodentiumΔeae: ~20 fold
